Measurements reported in article PMC2557009.

Assays:
[1] = molecular target: tubulin (sheep brain) (sheep); test: co-sedimentation; 20 μM tubulin polymerised with 5 μM YB-1 in buffer M with 10% glycerol at 37°C to steady state, microtubules pelleted at 300 000 × g; SDS-PAGE, visual estimation on Coomassie stained gels; details: scale: mole of YB-1 per mole of tubulin heterodimer
[2] = molecular target: tubulin (sheep brain) (sheep); test: co-sedimentation; 20 μM tubulin polymerised with 10 μM YB-1 in buffer M with 10% glycerol at 37°C to steady state, microtubules pelleted at 300 000 × g; SDS-PAGE, visual estimation on Coomassie stained gels; details: scale: mole of YB-1 per mole of tubulin heterodimer

Chain of YB-1 (Q28618 whole entry): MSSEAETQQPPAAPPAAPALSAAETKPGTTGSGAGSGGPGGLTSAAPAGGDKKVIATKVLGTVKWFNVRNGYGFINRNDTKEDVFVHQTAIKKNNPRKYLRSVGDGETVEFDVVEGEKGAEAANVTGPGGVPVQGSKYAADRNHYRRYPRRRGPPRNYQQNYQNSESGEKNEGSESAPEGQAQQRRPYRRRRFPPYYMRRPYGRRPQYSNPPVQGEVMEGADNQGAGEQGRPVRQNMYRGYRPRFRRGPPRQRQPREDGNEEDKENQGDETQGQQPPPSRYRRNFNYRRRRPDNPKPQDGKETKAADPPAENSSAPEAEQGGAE

stoichiometry N [1]: 0.33
stoichiometry N [2]: 0.5
Substance: YB-1 (from UniProt Q28618 1-324) (natural protein)
